Reference: publication PMC4453921, “Crystal structure of caspase recruiting domain (CARD) of apoptosis repressor with CARD (ARC) and its implication in inhibition of apoptosis” (Scientific Reports, 2015)

B1: ARC CARD domain (amino acids 1-95), wild type [human] / itself (parent)
chain: MGNAQERPSETIDRERKRLVETLQADSGLLLDALLARGVLTGPEYEALDALPDAERRVRRLLLLVQGKGEAACQELLRCAQRTAGAPDPAWDWQH

Variants of: B1
Test: SEC-MALS
Conditions: with itself

screen value	Variant
11.8 kDa	chain 1 R56E R59E
12.8 kDa	chain 1 D49R R59E
12 kDa	chain 1 R59E
13 kDa	chain 1 D49R
13.2 kDa	chain 1 R56E
